Data: patent US20180163180A1, “METHOD OF ENHANCING SOMATIC CELL REPROGRAMMING WITH THE ACETYLLYSINE READER BRD3R” (THE UAB RESEARCH FOUNDATION, INC ., priority 2015, published 2018)

B1: BRD3R shRNA: shRNA that specifically targets BRD3R (SEQ ID NO: 42 and 43) (nucleic acid)
chain 1: CTAGGAACCTCTGTAATTGTTTCCTGGCTCGAGCCAGGAAACAATTACAGAGGTTCTTTTTT
chain 2: AAAAAAGAACCTCTGTAATTGTTTCCTGGCTCGAGCCAGGAAACAATTACAGAGGTTC
B2: LIN28: established reprogramming factor (protein, UniProt Q9H9Z2 2-209, looked up)
Protein lin-28 homolog A: GSVSNQQFAGGCAKAAEEAPEEAPEDAARAADEPQLLHGAGICKWFNVRMGFGFLSMTARAGVALDPPVDVFVHQSKLHMEGFRSLKEGEAVEFTFKKSAKGLESIRVTGPGGVFCIGSERRPKGKSMQKRRSKGDRCYNCGGLDHHAKECKLPPQPKKCHFCQSISHMVASCPLKAQQGPSAQGKPTYFREEEEEIHSPTLLPEAQN

Tests used:
BJ cells [1] = experiment: Reprogramming of human fibroblasts scored by TRA-1-60+ colonies/clusters; type: cell-based; settings: for reprogramming activity (TRA-1-60+ colonies): used with 3F in BJ cells, compared to OSK-GFP control
Protocol: Briefly (FIG. 1A), 2×10^4 of BJ cells were seeded in each well of a 24-well plates. The second day, fibroblasts were transduced with OCT4 (10 MOI), SOX2 (5 MOI), KLF4 (5 MOI) along with 250 μl of individual kinase viral supernatant freshly packaged in one well of a 6-well plate. Twenty-two cDNAs were evaluated in one 24-well plate. One well is OSK control, and one well of cells is transduced with OSK plus 250 μl of GFP viral supernatant as a second control. Virus was removed next day with fresh fibroblast medium. Forty-eight hours after transduction, fibroblasts were transferred from one well into a 60-mm dish for continued reprogramming. The next day of re-seeding, fibroblast medium was replaced with E7 medium (E8 minus TGF beta) plus 100 μM of sodium butyrate. From day 18 of reprogramming on, E8 media was used. On day 25 of reprogramming, reprogramming dishes were stained for ALP or TRA-1-60 markers.
• Concentration of virus: The reprogramming viruses (OCT4, SOX2, KLF4, MYC and BET members) were concentrated before use except for library viruses. The lentiviral supernatant was centrifuged at 3,000×g for 10 mins at 4° C. to remove the cell debris. Thirty ml of the viral supernatant was then transferred into each 50-ml tube. 7 ml of 50% PEG-6000 stock solution (final concentration of 8.5%) and 4.1 ml of 4 M NaCl stock solution was added to each tube (final concentration of 0.4 M). The virus mixture was stored at 4° C. for 3-5 h.
• Cell culture and reprogramming: Human fibroblast cells (BJ ATCC CRL-2522®) were cultured in fibroblast medium: DMEM, 10% heat-inactivated FBS, 0.1 mM 2-mercaptoethanol, 100 U/ml penicillin, 100 μg/ml streptomycin, 0.1 mM MEM NEAA and 4 ng/ml human bFGF. For reprogramming, seed BJ cells into 24-well plate at 2×10^4 cells/well. Twenty-four hours after plating, pre-mix the OSK (OCT4, 10 MOI; SOX2, 5 MOI and KLF4, 5 MOI) viruses (shown in FIGS. 6B-6D, SEQ ID NO: 58-60, respectively), and add the OSK virus along with 250 μl supernatant of individual kinase virus into respective wells. Incubate overnight. Next morning, remove viruses by replacing virus-containing medium with fresh fibroblast medium. Twenty-four hours after transduction, the cells were re-seeded from one well into one matrigel-coated 60-mm dish. Next day, replace fibroblast medium with reprogramming media (E7 plus sodium butyrate at 100 μM). On 18 day, start to use E8 media. On day 25 of reprogramming, stain the reprogramming cells for alkaline phosphatase or TRA-1-60.

[2] = target: T1, tetra-acetylated H4 (H4K5/8/12/16Ac) (Homo sapiens, UniProt P62805); experiment: Histone peptide pull-down assay; type: binding; settings: lysates of human fibroblasts overexpressing BRD3R or BRD3; western with BRD3 antibody
T1 construct: Histone tails used for peptide pull-down experiments; Peg-biotin (chemical label); incubated with lysate of human BJ fibroblasts transduced with BRD3R or BRD3 virus
Protocol: • Histone peptide pull-down assay: H3 or H4 histone tails with 8 different acetylation modifications were evaluated for binding with BRD3R and BRD3. One unmodified tail for each histone was used for negative control.
Human BJ fibroblasts were transduced with BRD3 or BRD3R viruses. Three days post-transduction, cells were lysed by non-denaturing lysis buffer (20 mM HEPES pH 7.9, 150 mM NaCl, 1 mM MgCl2, 0.5% NP40, 10 mM NaF, 0.2 mM NaVO4, 10 mM β-glycerol phosphate, 5% glycerol, 1 mM DTT, 1 mM PMSF and protease inhibitors). Twenty μg of the cell lysates were incubated with 1 μg biotinylated peptide in 300 μl binding buffer (50 mM Tris pH 7.5, 150 mM NaCl, 0.1% NP-40, 1 mM PMSF and protease inhibitors) at 4° C. for overnight. The next day, 30 μl of Dynabeads M-280 Streptavidin was added into each sample (Invitrogen, 11205D). The mixture of proteins, antibodies and beads were further incubated with gentle rotation at 4° C. for 1 h. The beads were then washed with binding buffer three times. The bound proteins were resuspended in 60 μl of 2× SDS sample buffer. The pull-down proteins were analyzed by western using antibody of BRD3 (Proteintech, 11859-1-AP). Two micrograms of cell lysates were loaded as input control. For semi-quantification, band density was normalized to the corresponding inputs.

BJ cells [3] = experiment: Sensitivity test of the optimized small-vessel reprogramming protocol (ALP staining); type: cell-based, human; settings: n=3
Source text: • Optimization of screening protocol: Several strategies to make the screening of cDNA library more efficient and sensitive were used. First, the lentiviral reprogramming vector was modified so that it is more efficient and consistent in reprogramming human cells. This was achieved by using EF1a promoter and co-expression of GFP, which makes titration of viral vectors easier and faster. Second, the efficient Gateway cloning was used to transfer the human kinase library onto the modified lentiviral destination vector. 24 randomly selected of the 89 cloned cDNAs were sequenced, and verified precise cloning for all of the 24 genes. Third, a protocol to simultaneously package 24×n individual transgene viruses in individual wells of 6-well plates was established. The kinase virus was not concentrated and the supernatant directly used in screening protocol. Almost 100% of transduction of BJ cells in one well of a 24-well plate with 250 μl of supernatant using GFP reporter construct on the same destination vector (FIGS. 6J and 6K) was achieved. […] To test the sensitivity of the new screening protocols, the reprogramming activities of two established reprogramming factors: NANOG and LIN28, were evaluated. […]
Briefly (FIG. 1A), 2×10^4 of BJ cells were seeded in each well of a 24-well plates. […] Twenty-two cDNAs were evaluated in one 24-well plate. […]

BRD3R mRNA = experiment: Knockdown of BRD3R mRNA by shRNA (RT-qPCR); type: cell-based, human
Protocol: • shRNA cloning: BRD3R shRNAs at XbaI and HpaI sites on the shRNA vector PLVH-U6-EF1a-AcGFP were cloned. Correct cloning was verified by sequencing. An shRNA targeting the firefly luciferase was used as a control.
• RT-qPCR: Cells were harvested with Trizol reagent and stored at −80° C. until use. Total RNA was extracted using the Direct-zol™ Miniprep kit (R2052). cDNA was prepared using the M-MLV reverse transcriptase (cat #28025-013) per manufacturer's instruction. Quantitative PCR was performed on ViiA 7 Real-time PCR system (Applied Biosystem) using SYBR-Green Master PCR mix (Clontech, Cat #639676) in triplicates. All quantifications were normalized to an endogenous GAPDH control.

| Molecule | reprogramming activity (TRA-1-60+ colonies) (BJ cells [1]) | increase in reprogramming efficiency (BJ cells [3]) [×] | further results |
| --- | --- | --- | --- |
| BRD2: BET subfamily bromodomain protein | none did | – | – |
| BRD3: canonical BRD3 (NP_031397; 726 aa, SEQ ID NO: 45), BET bromodomain protein | none did | – | binding to H4K5/8/12/16Ac peptide [2]: weaker than BRD3R |
| NANOG: established reprogramming factor [reference compound] | – | 5.1 | – |
| B1 | – | – | impairment of reprogramming (BJ cells [1]; BRD3R knockdown by shRNA, TRA-1-60 staining): 58%; knockdown of BRD3R mRNA (BRD3R mRNA): significant knockdown |
| B2 | – | 2.4 | – |
